One block for each substance: values may come before it.
How the values were obtained:
Assay in all cases: optical tweezers force spectroscopy; single-chain clamp held by two 777-bp DNA handles between streptavidin on a biotinylated quartz slide and an anti-digoxigenin-coated 2 µm bead in the laser trap; stage moved at 100 nm/s; trap stiffness 0.15 pN/nm; buffer B (100 mM sodium phosphate, 150 mM sodium chloride, pH 7.2); rupture of the one subunit-subunit interface that can open within the chain
[1] = biological target: single-chain E. coli β-clamp with cysteines at E64 (first subunit) and E314 (second subunit) (E. coli)
[2] = biological target: single-chain E. coli β-clamp with cysteines at G102 (first subunit) and E298 (second subunit) (E. coli)
[3] = biological target: single-chain S. cerevisiae PCNA with cysteines at D122 (first subunit) and D223 (third subunit) (S. cerevisiae)
[4] = biological target: single-chain S. cerevisiae PCNA with cysteines at K107 (first subunit) and F185 (third subunit) (S. cerevisiae)

rupture force of the subunit interface [1]: 5.8 pN
Substance: single-chain E. coli β-clamp with cysteines at E64 (first subunit) and E314 (second subunit)

rupture force of the subunit interface [2]: 12 pN
Substance: single-chain E. coli β-clamp with cysteines at G102 (first subunit) and E298 (second subunit)

rupture force of the subunit interface [3]: 11 pN
Substance: single-chain S. cerevisiae PCNA with cysteines at D122 (first subunit) and D223 (third subunit)

rupture force of the subunit interface [4]: 1.7 pN
Substance: single-chain S. cerevisiae PCNA with cysteines at K107 (first subunit) and F185 (third subunit)
